The record followed here is patent publication US20230192902A1 (KENJOCKETY BIOTECHNOLOGY, published 2023).

This assay deals with T1, human ABCG2 (human, UniProt Q9UNQ0 1-655).
T1 construct: also called CD388; BCRP
T1 sequence: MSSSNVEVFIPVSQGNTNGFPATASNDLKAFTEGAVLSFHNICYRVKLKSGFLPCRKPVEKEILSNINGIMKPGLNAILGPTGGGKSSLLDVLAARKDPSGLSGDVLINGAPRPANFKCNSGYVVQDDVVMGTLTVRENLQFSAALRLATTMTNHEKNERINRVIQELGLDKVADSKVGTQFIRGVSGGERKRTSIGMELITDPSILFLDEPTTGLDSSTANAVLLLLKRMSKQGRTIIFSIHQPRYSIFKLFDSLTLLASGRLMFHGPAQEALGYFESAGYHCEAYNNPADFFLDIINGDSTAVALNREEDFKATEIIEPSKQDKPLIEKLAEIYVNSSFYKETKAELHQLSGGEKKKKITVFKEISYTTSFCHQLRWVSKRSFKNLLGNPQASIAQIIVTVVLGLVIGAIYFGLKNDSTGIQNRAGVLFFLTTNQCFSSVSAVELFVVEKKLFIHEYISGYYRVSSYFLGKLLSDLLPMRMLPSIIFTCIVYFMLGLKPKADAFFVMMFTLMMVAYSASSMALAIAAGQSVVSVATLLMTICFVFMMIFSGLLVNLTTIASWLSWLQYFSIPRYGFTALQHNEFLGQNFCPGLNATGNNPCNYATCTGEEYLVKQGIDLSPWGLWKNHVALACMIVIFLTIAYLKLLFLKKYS
Description: flow cytometry on 293T cells stably expressing human ABCG2.

B1: anti-ABCG2 antibody 5D3 (antibody, V domains shown)
VH: QVQLQESGPGLVKPSQSLSLTCTVTGFSITSDYAWNWIRQFPGKKLEWMGYINFDGGTTYNPSLRGRISITRDTSKNQFFLQLRSVTPEDTATYYCATFYGAKGTLDYWGQGTSVTVSS
VL: DIVLTQSPSSFSVSLGDRVTISCKASGYILNRLAWYQQKPGNAPRLLISGATSLETGFPSRFSGTGSGKDYTLSISSLQTEDVGTYYCQQYWSTPWTFGGGTKLEIR
As for B1, the binding result is listed as “binds”.
